Assay results published in US20250074994A1 (Molecular Partners, published 2025).

Biological target: T1, biotinylated recombinant human CD70 (extracellular domain, Fc tag) (human, UniProt P32970 52-193, chemically biotinylated using 5-fold excess of Biotin)
T1 construct: Bought from ACROBiosystems; also called bio.hCD70; Bio.CD70; not shown: C-terminal Fc Tag of the bought protein (ACROBiosystems)
T1 sequence: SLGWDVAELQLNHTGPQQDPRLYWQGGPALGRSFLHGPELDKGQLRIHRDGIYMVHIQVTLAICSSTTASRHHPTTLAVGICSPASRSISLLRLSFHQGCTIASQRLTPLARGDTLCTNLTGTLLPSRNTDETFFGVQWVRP
Assay: crude cell extract HTRF with 2 nM biotinylated hCD70
From the text: Selected clones bind specially to human CD70 as shown by crude extract HTRF Individual selected ankyrin repeat proteins specifically binding to hCD70 in solution were identified by a Homogeneous Time Resolved Fluorescence (HTRF) assay using crude extracts of ankyrin repeat protein-expressing Escherichia coli cells using standard protocols. Ankyrin repeat protein clones selected by ribosome display were cloned into derivatives of the pQE30 (Qiagen) expression vector (pMPDV25), transformed into E. coli XL1-Blue (Stratagene), plated on LB-agar (containing 1% glucose and 50 μg/ml ampicillin) and then incubated overnight at 37° C. […]
The extract of each lysed clone was applied as a 1:2000 dilution (final concentration) in PBSTB (PBS supplemented with 0.1% Tween 20® and 0.2% (w/v) BSA, pH 7.4) together with 2 nM (final concentration) biotinylated hCD70, 1:400 (final concentration) of anti-strep-Tb HTRF antibody—FRET donor conjugate (Cisbio) and 1:400 (final concentration) of anti-6His-D2 antibody FRET acceptor conjugate (Cisbio) to a well of 384 well plate and incubated for 60 minutes at RT. The HTRF was read-out on a Tecan M1000 using a 340 nm excitation wavelength and a 665±10 nm emission filter.

- binding result: binds
B1: DARPin® protein #4 (designed binder)
chain: MRGSHHHHHHGSDLGFKLLQAALRGQDDEVRILLAAGADVNAKDQLGTTPLHLAAHYGHLEIVEVLLKAGADVNAKDVWGDTPLHLAAQHGHLEIVEVLLKAGADVNAQDRAGYTPADLAAQEGHEDIAEVLQKAA
